Data on one substance can be found in US20090036380A1, “Composition And Method For Brain Tumor Therapy” (Yeda Research and Development Co., Ltd., priority 2006, published 2009).

One data set concerns the target T1, TrkC (Homo sapiens, UniProt Q16288).
T1 construct: expressed in transfected cells; host or cells: Hek cells
As to the kind of experiment: Co-immunoprecipitation of Ha Karet with TrkC in Hek cells. As to conditions: co-transfected Hek cells. Type of data set: binding. The method, then: (§1) FIGS. 24a-d depict co IP of Ha Karet with TrkA, TrkB, TrkC, p75 from co-transfected Hek cells. Cells were co-transfected with Ha Karet or control vector and TrkA, TrkB, TrkC or p75. Cells were lysed with NP40, the HA-beads (beads conjugated to anti-HA antibody) were blocked with Hek lysate, and elution was done for 30 minutes at 37° C. Proteins from anti-HA-IP (FIGS. 24a and b) or from cell lysates without IP (FIGS. 24c and d) were subjected to Western blot analysis and the membranes were probed with anti pan trk (FIGS. 24a and c) or anti-p75 (FIGS. 24b and d) antibodies. Note the specific co-IP of Karet with TrkA (FIG. 24a, lane 1), Karet with TrkB (FIG. 24a, lane 3), Karet with TrkC (FIG. 24a, lane 5) and the lack of IP between karet and p75 (FIG. 24b, lane 7).

In a further data set the target is T2, TrkA.
T2 construct: expressed in transfected cells; host or cells: PC12 6.24 cells (rat PC12 stably overexpressing human TrkA; Hempstead et al., 1992)
T2 sequence (P04629 33-796): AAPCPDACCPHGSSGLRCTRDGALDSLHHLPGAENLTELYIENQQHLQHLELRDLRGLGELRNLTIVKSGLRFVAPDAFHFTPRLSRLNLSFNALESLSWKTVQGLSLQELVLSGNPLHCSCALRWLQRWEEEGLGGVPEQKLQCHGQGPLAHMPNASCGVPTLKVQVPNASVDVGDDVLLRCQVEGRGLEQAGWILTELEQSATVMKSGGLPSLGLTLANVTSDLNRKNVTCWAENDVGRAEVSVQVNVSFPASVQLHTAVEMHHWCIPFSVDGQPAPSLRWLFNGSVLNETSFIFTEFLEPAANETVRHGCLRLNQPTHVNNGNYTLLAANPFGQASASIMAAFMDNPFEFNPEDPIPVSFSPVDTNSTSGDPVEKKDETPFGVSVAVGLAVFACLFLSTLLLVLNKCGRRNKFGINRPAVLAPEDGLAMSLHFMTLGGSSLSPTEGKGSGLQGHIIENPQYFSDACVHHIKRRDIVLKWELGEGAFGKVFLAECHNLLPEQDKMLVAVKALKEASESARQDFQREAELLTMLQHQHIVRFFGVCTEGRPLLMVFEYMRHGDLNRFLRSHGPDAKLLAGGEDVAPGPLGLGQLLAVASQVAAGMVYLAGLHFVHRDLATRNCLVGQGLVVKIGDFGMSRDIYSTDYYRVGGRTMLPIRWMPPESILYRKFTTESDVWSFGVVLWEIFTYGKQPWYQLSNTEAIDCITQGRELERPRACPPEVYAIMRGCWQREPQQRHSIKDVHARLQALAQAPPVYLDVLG
As to the kind of experiment: Tyr phosphorylation of TrkA in PC12 6.24 cells. Type of data set: cell-based, human. As to conditions: PC12-6.24 cells expressing Karet, anti-phospho-Tyr blot.

In a further data set the test system is NNR5 cells. As to the kind of experiment: Viability of NNR5 cells transfected with Karet constructs with or without TrkA. Type of data set: cell-based, rat. The method, then: FIG. 5f is a viable cell count histogram depicting that the pro-apoptotic effect of Karet is TrkA dependent. NNR5 cells were electroporated with GFP with or without TrkA construct, or Karet with or without TrkA. Cells were incubated for 12 hours after electroporation and results are presented as percent of control (NNR5 transfected with GFP only, mean±SD, n=4, * p<0.05).
FIGS. 20a-q are immunochemistry (FIGS. 20a-p) and FACS (FIG. 20q) analyses of myristylated constructs of Karet, PTB and the non-PTB domain in PC12 (FIGS. 20a-p) or NNR5 (FIG. 20q) cells. Myristylated constructs of Karet (FIGS. 20e-h), PTB (FIGS. 20i-l) and the non-PTB domain (FIGS. 20m-p) or non-myristylated construct of Karet (FIGS. 20a-d) were transfected to PC12 cells and immunochemistry of the expressed constructs was performed using HA-antibody (FIG. 20a), the PTB-antibody (FIGS. 20e, i and m) or Lamin (a nuclear membrane protein)-antibody (FIGS. 20b, f, j, and n). Merged images of the two-color immunocytochemistry are shown in FIG. 20d (for anti-Ha and anti-lamin antibodies) or FIGS. 20h l, and p (for anti-PTB and anti-lamin antibodies). Note the cytoplasmic expression of non-myristylated Karet (FIG. 20a) as compared to the nuclear membrane expression of lamin (FIG. 20b). […] NNR5 cells were transfected with pcDNA3, Ha Karet and TrkA, Myr-Karet, Myr-PTB or Myr-non PTB constructs and the effect on cell viability was determined using calcein (the dead/Live kit). […]
FIGS. 22a-b are histograms depicting the effect of co-transfection of Karet and TrkA on cell death in Hek (FIG. 22a) or NNR5 (FIG. 22b) cells. […] Viability of the cells was measured 24 hours after transfection by XTT. *p<0.05; FIG. 22b—NNR5 cells were co-transfected with Karet or control vector and TrkA, TrkB and TrkC. Cells were analyzed by FACS 24 hours after transfection using the dead/live kit. ** p<0.001.
Viability of cells was evaluated using the Live/dead viability/cytotoxicity kit (Cat. No. L-3224), Molecular Probes, Inc., Eugene, Oreg., USA, according to manufacturer's instructions.

Another data set relates to COS cells. The experiment in a line: Viability of COS cells expressing Karet. The format is cell-based.
The next data set has as its target T3, EGFR (Homo sapiens, UniProt P00533).
T3 construct: expressed in transfected cells; host or cells: HEK cells
The experiment in a line: Co-immunoprecipitation of HA-Karet with EGFR in HEK cells. Type of data set: binding. As to conditions: co-transfected HEK cells. The method, then:
FIG. 3g is a co-immunoprecipitation assay depicting co-immunoprecipitation of HA-Karet with EGFR in co-transfected HEK cells. Cells were co-transfected with Ha Karet or control vector and EGFR. Cells were lysed with NP40, the HA-beads (i.e., beads conjugated to HA antibody) were blocked with Hek lysate, and elution was done for 30 minutes at 37° C. The membranes were probed with anti FLAG antibody. Note the co-immunoprecipitation of Karet with EGFR in HEK cells.

For another data set, the target named is T4, TrkB (Homo sapiens, UniProt Q16620).
T4 construct: expressed in transfected cells; host or cells: Hek cells
As to the kind of experiment: Co-immunoprecipitation of Ha Karet with TrkB in Hek cells. The format is binding. As to conditions: co-transfected Hek cells. The method, then:
as §1

“Karet: full-length mouse Karet protein (SEQ ID NO:1), PTB domain protein, expressed from pcDNA3 with HA tag”: the “co-immunoprecipitation with TrkC” value with TrkC is reported as “co-immunoprecipitated”. Further, the “phosphorylation of TrkA” value with TrkA was “significantly enhanced the phosphorylation of the receptor”. Besides, the cell viability entry with NNR5 cells (NNR5 (TrkA deficient), Karet without TrkA) is “no reduction in cell viability”; in the data set on COS cells it was “no reduction in cell viability”. The “reduction in cell survival” value in the data set with NNR5 cells (NNR5 co-transfected with Karet and TrkA, 12 hours after electroporation, percent of control) is “about 20%”. The decrease in viability with NNR5 cells (NNR5 co-transfected with Karet and TrkA, FACS dead/live kit, 24 hours after transfection) was found to be 13%. Also, the “co-immunoprecipitation with EGFR” value with EGFR is recorded as “co-immunoprecipitation”. Also, the “co-immunoprecipitation with TrkB” value in the data set with TrkB is reported as “co-immunoprecipitated”.
